Columns and labels:
[1] = molecular target: Pyruvate dehydrogenase kinase 1 (PDK1) protein (UniProt Q15118); experiment: ITC; PDK1 protein with the lipoamide-binding domains of PDH-E2 (L1, L2), without HsA; conditions not told in the main text
[2] = molecular target: Pyruvate dehydrogenase kinase 1 (PDK1) protein (UniProt Q15118); experiment: ITC; PDK1 protein with the lipoamide-binding domains of PDH-E2 (L1, L2), in the presence of hemistepsin A (HsA); conditions not told in the main text
[3] = molecular target: T1, pyruvate dehydrogenase kinase (PDK) 1 (Homo sapiens, UniProt Q15118); experiment: isothermal titration calorimetry (ITC); format: binding
T1 construct: gene PDK1
T1 sequence (Q15118 29-436): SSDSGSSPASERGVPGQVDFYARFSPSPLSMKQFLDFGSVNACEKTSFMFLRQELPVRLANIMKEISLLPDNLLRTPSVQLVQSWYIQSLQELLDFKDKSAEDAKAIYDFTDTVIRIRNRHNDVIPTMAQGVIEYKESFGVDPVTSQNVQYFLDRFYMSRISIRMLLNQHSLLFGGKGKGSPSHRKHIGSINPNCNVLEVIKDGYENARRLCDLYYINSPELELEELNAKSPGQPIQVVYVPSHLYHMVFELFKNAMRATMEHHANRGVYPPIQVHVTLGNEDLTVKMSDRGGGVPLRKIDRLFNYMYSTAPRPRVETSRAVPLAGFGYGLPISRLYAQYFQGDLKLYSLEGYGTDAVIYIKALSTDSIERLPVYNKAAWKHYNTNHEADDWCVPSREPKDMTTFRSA

Sequence of Pyruvate dehydrogenase kinase 1 (PDK1) protein (Q15118 29-436): as above

Row | Kd [1] | Kd [2] | Kd [3] | Compound
1 | 30 µM | 41 µM | – | L2 lipoamide-binding domain of the PDH complex E2 subunit (PDH-E2) (domain or fragment)
2 | – | – | 22 µM | C=C(CO)C(=O)OC1C2C(=C)C(=O)OC2CC(=C)C2CC(O)C(=C)C21 (centres unmarked) [HsA, Hemistepsin A]
3 | 41.1 µM | 43.1 µM | – | L1 lipoamide-binding domain of the PDH complex E2 subunit (PDH-E2) (domain or fragment)

Source: paper PMC7736850, “Hemistepsin A suppresses colorectal cancer growth through inhibiting pyruvate dehydrogenase kinase activity” (Scientific Reports, 2020)
